Tests used:
HO-2 = assay: BVR kinase activity, 32P incorporation into exogenous substrate; format: biochemical, rat
Experimental: (§1) Incubation time was 8 min at 30° C.

HO-1 = assay: as above; format: biochemical, rat
Experimental: as §1

biliverdin reductase [1] = target: T1, biliverdin reductase (Rattus norvegicus, UniProt P46844); assay: Western blot analysis of phosphorylation of purified rat liver BVR; format: biochemical; conditions: individual anti-phosphotyrosine, -serine, -threonine antibodies
T1 sequence (P46844 3-295): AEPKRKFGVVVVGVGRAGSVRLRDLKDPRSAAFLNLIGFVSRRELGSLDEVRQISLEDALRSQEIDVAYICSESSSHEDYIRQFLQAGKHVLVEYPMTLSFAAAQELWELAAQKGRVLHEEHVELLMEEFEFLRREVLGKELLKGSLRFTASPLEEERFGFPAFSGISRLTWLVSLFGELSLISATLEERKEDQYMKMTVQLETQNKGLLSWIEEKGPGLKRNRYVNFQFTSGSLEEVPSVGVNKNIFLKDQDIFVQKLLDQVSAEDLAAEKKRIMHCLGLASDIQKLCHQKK
Experimental: 2D-IEF was performed essentially as detailed previously (Huang et al., J. Biol. Chem. 264:7844-7849 (1989), which is hereby incorporated by reference). The first dimension separation of 3.5 μg of the reductase was carried out by isoelectric focusing (Righetti et al., J Chromatogr. 98:271-321 (1974), which is hereby incorporated by reference) using ampholytes with a 4-6.5 pH range. Electrofocusing was carried out for 17 h at 400 volts then for an additional hour at 800 volts. After focusing, the second dimension separation was carried out using 12.5% SDS polyacrylamide gel. […] The secondary antibody was goat anti-rabbit horseradish peroxidase (Zymed) at a 1:1000 dilution. Detection was carried out using the ECL reagent kit (NEN) according to the manufacturer's instructions. Phosphorylation molecular weight markers were used (Zymed). Soybean trypsin inhibitor (pI 4.55), β-lactoglobin A (pI 5.13), bovine carbonic anhydrase (pI 5.85), and human carbonic anhydrase B (pI 6.57) were used as IEF standards. Immunoblotting was performed by the method of Towbin et al, Proc. Nat. Acad. Sci. USA 76:4350-4354 (1979), which is hereby incorporated by reference. Primary and secondary antibody treatments and staining for peroxidase with 4-chloro-1 -naphthol were performed as described previously (Huang et al., J. Biol. Chem. 264:7844-7849 (1989), which is hereby incorporated by reference).

PKC = assay: Effect of BVR and peptides on PKC activity (MBP substrate, kinetic analysis); format: biochemical
Experimental: FIGS. 11A-C are graphs depicting the role of BVR in increasing protein kinase C activity. FIG. 11A depicts the dose-dependence of PKC activity in the presence of BVR or PKC inhibitor peptide (“PKCI”) in an assay system containing 0.5 μg/ml PKC, 50 μM unlabeled ATP, 5 μCi[^32γP]-ATP and 1 mg/ml MBP and carried out as described infra. FIGS. 11B-C are the kinetic analyses of PKC activity carried out with respect to MBP (FIG. 11B) and with respect to ATP (FIG. 11C) in the presence or absence of 50 μM BVR.
FIGS. 12A-C are graphs illustrating the effect of various rBVR fragments on PKC activity. Protein kinase C was incubated at 30° C. with buffer or with the indicated peptides (50 μM) for 15 min prior to addition to a kinase assay using MBP as substrate. FIG. 12A depicts the relative activity for each sample normalizing to that of the PKC and buffer control value. FIGS. 12B-C are the kinetic analyses of PKC with respect to substrate MBP (FIG. 12B) and ATP (FIG. 12C) in the presence or absence of BVR peptide fragments (50 μM). BVR1 peptide corresponds to SEQ. ID. No. 34 and BVR2 peptide corresponds to SEQ. ID. No. 19.
as §1

biliverdin reductase [2] = target: T1, biliverdin reductase; assay: Autophosphorylation of biliverdin reductase, in blot method with [γ^32P]-ATP; format: biochemical; conditions: PVDF bound, denatured/renatured
Excerpt: The ability of the reductase to phosphorylate itself was examined using the in blot method of Ferrell and Martin (Ferrell et al., Methods Enzymol. 200:430-435 (1991), which is hereby incorporated by reference). Purified wild type or mutant proteins were used.
The ability of the reductase to phosphorylate itself was examined using the in blot method of Ferrell et al., Methods Enzymol. 200:430-435 (1991), which is hereby incorporated by reference. Following electrophoresis on 12.5% SDS-PAGE plus thioglycolate (0.002%), the protein was transferred to PVDF membrane (Millipore). The blot was denatured for I h at room temperature in 7 M guanidine-HCl (pH 8.3) containing 50 mM Tris-base, 50 mM dithiothreitol and 2 mM EDTA and the bound protein was allowed to renature overnight at 4° C. then incubated at room temperature for 4 h in freshly prepared labeling mix containing 10 μCi/ml [γ^32P]-ATP. The membrane first with 30 mM Tris-HCl (pH 7.4) then for 10 min each with 250 ml of the following: with 30 mM Tris-HCl (pH 7.4) twice; with the same buffer containing 0.5% (v/v) NP-40 once; with the Tris buffer twice; with 1 M KOH once; with the Tris buffer, twice . The membrane was blotted, dried, wrapped in plastic wrap, and exposed for autoradiography.

MBP = conditions: ^32P incorporation
Experimental: Kinase reactions were carried out based on the assay as described by Roskoski (Roskoski, Methods Enzymol. 99:3-6 (1983), which is hereby incorporated by reference) in a 50 μl volume in a reaction buffer consisting of 20 mM Tris HCl (pH 7.4) containing 10 mM MgCl2, 50 mM unlabeled ATP, 5 μCi [γ^32 P]-ATP and 1 mg/ml substrate. Substrates used were prepared as 10 mg/ml stock in 0.2 M Tris-HCl (pH 7.4) and stored at -20° C. The substrates utilized were MBP and histone III-S (Sigma) and E. coli expressed purified preparations of full length rat HO-1 and HO-2 (McCoubrey et al., J. Biol. Chem. 272:12568-12574 (1997), which is hereby incorporated by reference). The substrate/reaction buffer was incubated at 30° C. for 4 min prior to the addition of 5 μl of enzyme source (2 mg/ml BVR, 0.5 μg/ml PKC) or enzyme vehicle (GST-PBS containing 10% glycerol). Samples were mixed by aspiration and were then incubated for 8-15 min at 30° C. An aliquot (40 μl) from the reaction mixture was spotted onto a P81 (Whatman) filter, which was immediately immersed in 75 mM phosphoric acid for ≧5 min. Filters were washed 5× for 5 min each in 75 mM phosphoric acid and then 1× for 5 min with acetone before being air dried and counted by liquid scintillation counting in 10 ml ScintiVerse BD (Fisher). […] Activity was determined as ^32P counts incorporated into the acceptor protein per minute. […]

histone III-S = assay: BVR kinase activity, 32P incorporation into exogenous substrate; format: biochemical
Experimental: as §1

[3] = test system: PKC (a mixture containing equal amounts of isozymes α, β and γ); assay: Overlay assay for PKC binding by rat BVR; conditions: 2 μg rat liver BVR, 500 ng/ml PKC
Experimental: The physical interaction of BVR with PKC was assessed using an overlay assay based on that described by Wolf and Sahyoun (J. Biol. Chem. 261:13327-13331 (1986), which is hereby incorporated by reference) with known modifications (Chapline et al., J. Biol. Chem. 268:6858-6861 (1993), which is hereby incorporated by reference). Purified rat liver BVR (2 μg) was subjected to SDS-PAGE and transferred to nitrocellulose membrane. The membrane was blocked, washed, and then overlaid with a solution containing 500 ng/ml of PKC (a mixture containing equal amounts of isozymes α, β and γ) (Promega) in TBS containing 10 mg/ml BSA, 20 μg/ml phosphatidylserine, 1 mM EGTA, 1.2 mM CaCl2, 10 μg/ml leupeptin and 10 μg/ml aprotinin. After incubation for 1 h at room temperature, the blot was extensively washed with the PBS containing the same supplements as the overlay solution, but lacking the kinase mixture. The protein on the membrane was fixed by incubation in 0.5% formaldehyde in PBS and then reactive aldehyde groups were blocked by incubation in 2% glycine in TBS for 20 min at room temperature. The membrane was then washed 3 times with TBS and was cut in two, one half was subjected to Western blot analysis using a 1:1000 dilution of anti-PKC for 2 h at room temperature as the primary antibody, while the second half was probed with rabbit anti-rat BVR as detailed above for Western blotting. […]

[4] = Reductase activity of BVR purified from rat liver; format: biochemical; conditions: purified to homogeneity
Experimental: BVR was purified from rat liver to homogeneity (3,000 nmol bilirubin/min/mg protein) as described before (O'Carra et al., J. Biochem. 125:110P (1971), which is hereby incorporated by reference), with modifications (Huang et al., J. Biol. Chem. 264:7844-7849 (1989), which is hereby incorporated by reference). Activity was determined at pH 8.7 with NADPH in Tris-HCl with […] in potassium phosphate buffer. The substrate concentration was 5 μM. The rate of activity was measured by the increase in 450 nm absorbance at 25° C. The purified reductase, which was judged to be homogenous by SDS-PAGE, stained with Coomasie Brilliant Blue (Sigma), was used for preparation of polyclonal antibody in New Zealand rabbits (O'Carra et al., J. Biochem. 125:110P (1971), which is hereby incorporated by reference). Protein concentration was determined by Bradford's method (Bradford, Anal. Biochem. 72:248-254 (1976), which is hereby incorporated by reference).

[5] = in the presence of 50 μM BVR or peptide

B1: BVR: rat biliverdin reductase, SEQ. ID. No. 4, purified from rat liver (Example 3) (protein, listed as Rattus norvegicus)
chain: MDAEPKRKFGVVVVGVGRAGSVRLRDLKDPRSAAFLNLIGFVSRRELGSLDEVRQISLEDALRSQEIDVAYICSESSSHEDYIRQFLQAGKHVLVEYPMTLSFAAAQELWELAAQKGRVLHEEHVELLMEEFEFLRREVLGKELLKGSLRFTASPLEEERFGFPAFSGISRLTWLVSLFGELSLISATLEERKEDQYMKMTVQLETQNKGLLSWIEEKGPGLKRNRYVNFQFTSGSLEEVPSVGVNKNIFLKDQDIFVQKLLDQVSAEDLAAEKKRIMHCLGLASDIQKLCHQKK
In the case of B1, the “HO-2 as substrate for BVR phosphotransferase activity” value (HO-2) is reported as “not substrates”, the “HO-1 as substrate for BVR phosphotransferase activity” value (HO-1) is reported as “not substrates” and the phosphoamino acids present (biliverdin reductase [1]) is reported as “esterified on tyrosine (panel b), serine (panel c), and threonine (panel d) residues”. The “effect on Km of the PKC reaction with respect to ATP” value (PKC; BVR 50 μM) was “negligible”, the “dose dependence of PKC activity (^32P into MBP)” value (PKC; PKC preincubated 15 min at 30° C., MBP substrate) was “increased in a dose-dependent manner” and the “Vmax of the PKC reaction with respect to ATP” value (PKC; [5]) was 2.9 pmol/min. The “Vmax of the PKC reaction with respect to MBP” value (PKC; [5]) was 4.9 pmol/min, the substrate Km of the PKC reaction (PKC; upon addition of BVR (50 μM), MBP) was 0.16 mg/mL and the autophosphorylation (biliverdin reductase [2]) was “able to phosphorylate itself”. For the same molecule, the “phosphate transferred by BVR to MBP” value (MBP) was ~4,000 cpm/min, the “phosphate transferred by BVR to histone III-S” value (histone III-S) was ~1,000 cpm/min and the “PKC binding (overlay, anti-PKC Western)” value [3] was “PKC-interactive protein”. The “specific activity of purified rat liver BVR” value [4] was 3,000 nmol bilirubin/min/mg protein.
